This is an account of results in doi:10.1101/2020.12.03.409995 (2020).

Assay [1] addresses T1, Biotin-Aβ42 oligomers (human, UniProt P05067 672-713, biotin (position not given)). The experiment in a line: BLI; koff1 (first site). In general terms: BLI is a label-free optical method that tracks binding on a fibre tip over time.
The target in assay [2] is T1, Biotin-Aβ42 oligomers. The experiment in a line: BLI; koff2 (second site).

B1: wild-type sTREM2 (TREM2 ectodomain, residues 19-143, His-tagged) (domain or fragment)
chain: HNTTVFQGVAGQSLQVSCPYDSMKHWGRRKAWCRQLGEKGPCQRVVSTHNLWLLSFLRRWNGSTAITDDTLGGTLTITLRNLQPHDAGLYQCQSLHGSEADTLRKVLVEVLADPLDHRDAGDLWF
For the molecule B1, the koff with Biotin-Aβ42 oligomers [1] was 0.435 s⁻¹; in the assay with Biotin-Aβ42 oligomers [2] it was 0.00772 s⁻¹.

The term koff denotes the rate constant with which the complex falls apart. A high value points to a short-lived complex.
